# Experimental data reported in patent US20230257472A1 (JIANGSU HENGRUI MEDICINE, published 2023).
# T1: His-tagged CD70 protein extracellular domain (His-TNC-CD70) (human)
# T1 construct: Expressed in 293 cells; also called human His-TNC-CD70 antigen; human CD70 antigen
# T1 chain: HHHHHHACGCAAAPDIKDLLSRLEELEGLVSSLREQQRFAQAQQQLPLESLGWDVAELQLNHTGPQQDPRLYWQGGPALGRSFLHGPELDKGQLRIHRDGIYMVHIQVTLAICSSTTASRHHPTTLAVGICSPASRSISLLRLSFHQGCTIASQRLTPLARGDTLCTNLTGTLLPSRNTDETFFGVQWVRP
# Target: T1, His-tagged CD70 protein extracellular …
# Assay: SPR Biacore T200, antibody captured by anti-human Fc, His-TNC-CD70 in flow, 1:1 model
# Experimental: The affinity of the chimeric and humanized antibodies of the present disclosure for the human CD70 antigen was tested using a Biacore instrument. The procedures are as follows:
# The human Fc capture molecules were covalently coupled to a CM5 biosensor chip (CAT #BR-1005-30, GE) according to the method described in the instructions of the human Fc capture kit (CAT #BR-1008-39, GE) for affinity capture of the antibodies to be tested. Then, a human His-TNC-CD70 antigen (set forth in SEQ ID NO: 1) flowed through the surface of the chip, and the reaction signal was detected in real time using a Biacore T200 instrument to obtain association and dissociation curves. After the dissociation was completed for each cycle, the biochip was washed and regenerated with a regeneration solution configured in the human antibody capture kit (GE). Data were fitted using a 1:1 model.
Binder,Kd,koff,kon
"huB7010 (antibody, human IgG1, kappa, V domains shown, Humanized IgG1) VH: EIQLVQSGSELKKPGASVKVSCKTSGYTFTNYGMNWVRQAPGQGLEWMGWINTYTGEPTYADEFKGRFVFSLETSVSTAYLQISSLKAEDTAVYYCARGDSFTTEILRNWYFDVWGQGTTVTVSS VL: DIQMTQSPSSLSASVGDRVTITCGASENIYGALNWYQQKPGKVPKLLIYGATNLADGVPSRFSGSGSGRDYTLTISSLQPEDVATYYCQNVLSTPWTFGGGTKVEIKR",0.0396 nM,0.000172 s⁻¹,4.36e+06 M⁻¹ s⁻¹
"huB7014 (antibody, human IgG1, kappa, V domains shown, Humanized IgG1) VH: EVQLVQSGSELKKPGASVKVSCKASGYTFTNYGMNWVRQAPGQGLEWMGWINTYTGEPTYADEFKGRFVFSLDTSVSTAYLQISSLKAEDTAVYYCARGDSFTTEILRNWYFDVWGQGTTVTVSS VL: DIQMTQSPSSLSASVGDRVTITCGASENIYGALNWYQQKPGKSPKLLIYGATNLADGVPSRFSGSGSGRDYTLTISSLQPEDVATYYCQNVLSTPWTFGGGTKVEIKR",0.0371 nM,0.000182 s⁻¹,4.92e+06 M⁻¹ s⁻¹
"huB7008 (antibody, human IgG1, kappa, V domains shown, Humanized IgG1) VH: EVQLVQSGSELKKPGASVKVSCKASGYTFTNYGMNWVRQAPGQGLEWMGWINTYTGEPTYADEFKGRFVFSLDTSVSTAYLQISSLKAEDTAVYYCARGDSFTTEILRNWYFDVWGQGTTVTVSS VL: DIQMTQSPSSLSASVGDRVTITCGASENIYGALNWYQQKPGKVPKLLIYGATNLADGVPSRFSGSGSGRDYTLTISSLQPEDVATYYCQNVLSTPWTFGGGTKVEIKR",0.0347 nM,0.000169 s⁻¹,4.87e+06 M⁻¹ s⁻¹
"huB7018 (antibody, human IgG1, kappa, V domains shown, Humanized IgG1) VH: EIQLVQSGSELKKPGASVKVSCKTSGYTFTNYGMNWVRQAPGQGLKWMGWINTYTGEPTYADEFKGRFVFSLETSVSTAYLQINSLKAEDTAVYYCARGDSFTTEILRNWYFDVWGQGTTVTVSS VL: DIQMTQSPSSLSASVGDRVTITCGASENIYGALNWYQQKPGKSPKLLIYGATNLADGVPSRFSGSGSGRDYTLTISSLQPEDVATYYCQNVLSTPWTFGGGTKVEIKR",0.0464 nM,0.000191 s⁻¹,4.12e+06 M⁻¹ s⁻¹
"huB7016 (antibody, human IgG1, kappa, V domains shown, Humanized IgG1) VH: EIQLVQSGSELKKPGASVKVSCKTSGYTFTNYGMNWVRQAPGQGLEWMGWINTYTGEPTYADEFKGRFVFSLETSVSTAYLQISSLKAEDTAVYYCARGDSFTTEILRNWYFDVWGQGTTVTVSS VL: DIQMTQSPSSLSASVGDRVTITCGASENIYGALNWYQQKPGKSPKLLIYGATNLADGVPSRFSGSGSGRDYTLTISSLQPEDVATYYCQNVLSTPWTFGGGTKVEIKR",0.0418 nM,0.000185 s⁻¹,4.43e+06 M⁻¹ s⁻¹

# Binders with a lower Kd, results first:
Kd,koff,kon,Binder
0.0246 nM,0.000158 s⁻¹,6.41e+06 M⁻¹ s⁻¹,"huB7006 (antibody, human IgG1, kappa, V domains shown, Humanized IgG1) VH: EIQLVQSGSELKKPGASVKVSCKTSGYTFTNYGMNWVRQAPGQGLKWMGWINTYTGEPTYADEFKGRFVFSLETSVSTAYLQINSLKAEDTAVYYCARGDSFTTEILRNWYFDVWGQGTTVTVSS VL: DIQMTQSPSSLSASVGDRVTITCGASENIYGALNWYQQKPGKVPKLLIYGATNLADGVPSRFSGSGSGTDFTLTISSLQPEDVATYYCQNVLSTPWTFGGGTKVEIKR"
0.0282 nM,0.000157 s⁻¹,5.58e+06 M⁻¹ s⁻¹,"huB7004 (antibody, human IgG1, kappa, V domains shown, Humanized IgG1) VH: EIQLVQSGSELKKPGASVKVSCKTSGYTFTNYGMNWVRQAPGQGLEWMGWINTYTGEPTYADEFKGRFVFSLETSVSTAYLQISSLKAEDTAVYYCARGDSFTTEILRNWYFDVWGQGTTVTVSS VL: DIQMTQSPSSLSASVGDRVTITCGASENIYGALNWYQQKPGKVPKLLIYGATNLADGVPSRFSGSGSGTDFTLTISSLQPEDVATYYCQNVLSTPWTFGGGTKVEIKR"
0.0257 nM,0.000154 s⁻¹,5.99e+06 M⁻¹ s⁻¹,"huB7012 (antibody, human IgG1, kappa, V domains shown, Humanized IgG1) VH: EIQLVQSGSELKKPGASVKVSCKTSGYTFTNYGMNWVRQAPGQGLKWMGWINTYTGEPTYADEFKGRFVFSLETSVSTAYLQINSLKAEDTAVYYCARGDSFTTEILRNWYFDVWGQGTTVTVSS VL: DIQMTQSPSSLSASVGDRVTITCGASENIYGALNWYQQKPGKVPKLLIYGATNLADGVPSRFSGSGSGRDYTLTISSLQPEDVATYYCQNVLSTPWTFGGGTKVEIKR"
